Reference: article doi:10.1101/2025.03.16.643581

Biological target: CDKL5-PBM peptide, WT (FITC-labeled) (human)
Test: fluorescence polarisation

Row | Substance | Kd
1 | PSD95 PDZ3 domain (domain or fragment) | 13.3 µM
2 | PSD95 PDZ2 domain (domain or fragment) | 40.8 µM
3 | PSD95 PDZ1 domain (domain or fragment) | 146 µM
